The target in the test is CpuTA1, fold type IV transaminase from Curtobacterium pusillum (Curtobacterium pusillum). The experiment in a line: crystal structure; CpuTA1 12 mg/mL with 5 mM PLP, co-crystallised with 10 mM 3-amino benzoic acid, 2.4 M sodium malonate pH 7.0, micro-seeding, 289 K; two chains in the asymmetric unit; interface analysed with PDBePISA.

For orientation: stoichiometry N means a count of units in the complex or per binding partner. Regarding “CpuTA1, fold type IV transaminase from Curtobacterium pusillum (enzyme)”, the stoichiometry N stood at 2.

Values taken from publication PMC5131300, “Discovery and structural characterisation of new fold type IV-transaminases exemplify the diversity of this enzyme fold” (Scientific Reports, 2016).
